Patent US20240167008, “NOVEL CRISPR ENZYMES, METHODS, SYSTEMS AND USES THEREOF” (Beam Therapeutics Inc., published 2024)

Target: T1, ScoCas9 (human codon-optimized) (Streptococcus constellatus)
T1 chain: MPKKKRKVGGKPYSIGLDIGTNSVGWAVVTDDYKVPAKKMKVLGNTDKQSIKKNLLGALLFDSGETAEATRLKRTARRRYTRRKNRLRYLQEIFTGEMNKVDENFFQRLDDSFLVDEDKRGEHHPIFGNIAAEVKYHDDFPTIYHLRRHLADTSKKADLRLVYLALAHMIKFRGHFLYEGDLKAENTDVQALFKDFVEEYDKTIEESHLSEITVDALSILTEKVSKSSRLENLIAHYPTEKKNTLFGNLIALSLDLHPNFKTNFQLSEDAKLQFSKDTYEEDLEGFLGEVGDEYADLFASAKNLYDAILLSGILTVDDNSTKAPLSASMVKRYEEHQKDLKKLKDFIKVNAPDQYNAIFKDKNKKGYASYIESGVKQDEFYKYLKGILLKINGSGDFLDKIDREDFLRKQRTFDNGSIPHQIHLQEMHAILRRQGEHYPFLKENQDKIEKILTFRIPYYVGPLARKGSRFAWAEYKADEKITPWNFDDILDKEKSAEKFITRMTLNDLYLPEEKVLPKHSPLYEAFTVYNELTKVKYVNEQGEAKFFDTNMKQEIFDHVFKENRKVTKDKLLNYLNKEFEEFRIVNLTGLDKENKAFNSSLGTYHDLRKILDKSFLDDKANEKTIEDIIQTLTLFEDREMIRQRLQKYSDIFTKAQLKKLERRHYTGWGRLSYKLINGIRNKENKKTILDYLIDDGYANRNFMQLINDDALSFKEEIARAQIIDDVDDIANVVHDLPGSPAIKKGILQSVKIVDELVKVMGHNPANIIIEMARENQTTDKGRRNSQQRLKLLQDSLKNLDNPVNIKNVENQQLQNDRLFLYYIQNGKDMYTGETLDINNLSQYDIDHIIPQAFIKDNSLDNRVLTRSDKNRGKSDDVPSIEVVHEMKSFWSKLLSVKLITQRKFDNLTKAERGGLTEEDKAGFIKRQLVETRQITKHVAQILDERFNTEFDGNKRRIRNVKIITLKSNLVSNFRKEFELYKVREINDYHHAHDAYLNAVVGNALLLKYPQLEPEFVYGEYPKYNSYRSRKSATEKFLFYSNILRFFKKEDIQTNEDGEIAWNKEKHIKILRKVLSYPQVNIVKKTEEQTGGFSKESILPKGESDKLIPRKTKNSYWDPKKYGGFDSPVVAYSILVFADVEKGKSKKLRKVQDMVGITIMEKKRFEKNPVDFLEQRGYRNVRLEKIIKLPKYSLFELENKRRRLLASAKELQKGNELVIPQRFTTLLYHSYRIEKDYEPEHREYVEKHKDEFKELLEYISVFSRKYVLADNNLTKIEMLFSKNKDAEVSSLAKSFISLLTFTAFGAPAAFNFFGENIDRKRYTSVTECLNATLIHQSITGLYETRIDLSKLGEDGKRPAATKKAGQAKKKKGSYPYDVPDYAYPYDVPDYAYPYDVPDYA
Test: cell_activity; PAM NGG; HEK293T
Settings: tags: N-terminal and C-terminal NLS, 3xHA
Protocol: HEK293T cells were plated in a 96-well plate. Cells were transfected with expression vectors containing Cas9 and guide RNAs (Table 10), 24 hours after plating. Cells were harvested 72 hours post-transfection and total DNA was extracted.

B1: Sco guide 2 sgRNA ; guide 2 site (ssRNA ; dsDNA)
RNA: GAAACAAUGAUAACAAGACCGUUUUAGAGCUGUGCUGUUUAAACAACACAGCAAGUUAAAAUAAGGCUUUGUCCGUACUCAAGCUUGCAAAAGCGUGCACCGAUUCGGUGCU
DNA 1: GAAACAATGATAACAAGACCTGG
DNA 2: CCAGGTCTTGTTATCATTGTTTC
  activity: > 30 % indel

B2: Sco guide 11 sgRNA ; guide 11 site (ssRNA ; dsDNA)
RNA: UGCUGCACACAGCAGGCCUUGUUUUAGAGCUGUGCUGUUUAAACAACACAGCAAGUUAAAAUAAGGCUUUGUCCGUACUCAAGCUUGCAAAAGCGUGCACCGAUUCGGUGCU
DNA 1: TGCTGCACACAGCAGGCCTTTGG
DNA 2: CCAAAGGCCTGCTGTGTGCAGCA
  activity: ~2 % indel

B3: Sco guide 9 sgRNA ; guide 9 site (ssRNA ; dsDNA)
RNA: GUUGAAGAUGAAGCCCAGAGGUUUUAGAGCUGUGCUGUUUAAACAACACAGCAAGUUAAAAUAAGGCUUUGUCCGUACUCAAGCUUGCAAAAGCGUGCACCGAUUCGGUGCU
DNA 1: GTTGAAGATGAAGCCCAGAGCGG
DNA 2: CCGCTCTGGGCTTCATCTTCAAC
  activity: > 30 % indel
